Here are results for six molecules from patent publication US20210130436A1 (published 2021).

Assay [1] concerns the target T1, human PD-L1 (human, UniProt Q9NZQ7 19-290). The assay is described as follows: cell-based or functional assay.
Another assay deals with T2, human CD28 (human, UniProt P10747 19-220).
T2 construct: Endogenous CD28 on Jurkat/IL2 reporter cells
The assay is described as follows: flow cytometry on Jurkat cells (CD28); vs CD80 WT IgV-Fc. For orientation: In flow cytometry, cells or beads pass a laser one at a time.

Assay [2] concerns the target T1, human PD-L1. The assay is described as follows: flow cytometry on CHO cells stably expressing PD-L1; vs CD80 WT IgV-Fc.
Assay [3] deals with T1, human PD-L1. The assay is described as follows: flow cytometry; PD-L1 MFI over CD28 MFI.
The next assay concerns the target T3, human CTLA-4 (human, UniProt P16410 36-223).
T3 construct: also called huCTLA4
The experiment in a line: flow cytometry on CHO cells stably expressing CTLA4; vs CD80 WT IgV-Fc.

The target in assay [4] is T4, human PD-L1, expressed on CHO cells (human, UniProt Q9NZQ7 19-290).
T4 construct: whole, on cells; also called huPD-L1; CD274
T4 sequence (Q9NZQ7 19-290): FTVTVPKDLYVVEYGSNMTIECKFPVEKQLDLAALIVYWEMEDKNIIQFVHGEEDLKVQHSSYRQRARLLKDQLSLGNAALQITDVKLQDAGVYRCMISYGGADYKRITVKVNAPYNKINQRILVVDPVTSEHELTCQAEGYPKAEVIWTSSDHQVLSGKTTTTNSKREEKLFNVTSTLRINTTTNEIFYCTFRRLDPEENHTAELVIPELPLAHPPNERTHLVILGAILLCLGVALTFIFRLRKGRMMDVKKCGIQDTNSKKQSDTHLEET
The assay is described as follows: flow cytometry; MFI on PD-L1 cells over MFI on CD28 (Jurkat) cells, 33.3 nM.

In assay [5] the target is T5, human CD28, endogenously expressed on Jurkat/IL2 reporter cells (human, UniProt P10747 19-220).
T5 construct: whole, on cells
The assay is described as follows: flow cytometry, Jurkat (CD28) cells, 33.3 nM; MFI relative to CD80 WT IgV-Fc.

The target of assay [6] is T4, human PD-L1, expressed on CHO cells. The experiment in a line: flow cytometry, CHO/PD-L1 cells, 33.3 nM; MFI relative to CD80 WT IgV-Fc.
The target in assay [7] is T6, human CTLA-4 (CTLA4), expressed on CHO cells (human, UniProt P16410 36-223).
T6 construct: whole, on cells; also called huCTLA4
T6 sequence (P16410 36-223): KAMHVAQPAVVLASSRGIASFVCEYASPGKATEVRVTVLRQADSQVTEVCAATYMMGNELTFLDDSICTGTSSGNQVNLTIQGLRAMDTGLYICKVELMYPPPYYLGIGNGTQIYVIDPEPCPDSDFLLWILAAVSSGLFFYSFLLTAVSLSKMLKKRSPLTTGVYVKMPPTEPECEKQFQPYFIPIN
The assay is described as follows: flow cytometry, CHO/CTLA-4 cells, 33.3 nM; MFI relative to CD80 WT IgV-Fc.

The target in assay [8] is T7, human PD-L1, full length, expressed on transfected HEK293 cells (human, UniProt Q9NZQ7 19-290).
T7 construct: Full-length surface expression construct from Genscript; also called CD274; B7-H1
T7 sequence (Q9NZQ7 19-290): as the sequence (Q9NZQ7 19-290) above
The experiment in a line: flow cytometry, HEK293 cells transfected with human PD-L1.

The target of the next assay is T8, PD-1-Fc (UniProt Q15116 25-167).
T8 construct: not shown: Fc not described
T8 sequence (Q15116 25-167): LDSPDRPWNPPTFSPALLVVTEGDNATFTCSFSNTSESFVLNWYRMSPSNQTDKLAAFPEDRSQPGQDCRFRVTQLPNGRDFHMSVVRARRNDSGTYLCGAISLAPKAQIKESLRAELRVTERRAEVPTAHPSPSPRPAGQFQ
The assay is described as follows: ForteBio (BLI), PD-1-Fc. For orientation: Biolayer interferometry detects binding as a change in optical thickness at a sensor tip.

Assay [9] concerns the target T9, human PD-L1, expressed on cells (human, UniProt Q9NZQ7 19-290).
T9 construct: On CHO/PD-L1, K562/OKT3/PD-L1 and CHO/OKT3/PD-L1 aAPC, huPD-L1-transduced MC38 cells, or primary human monocytes; also called huPD-L1; hPD-L1
The assay is described as follows: flow cytometry on CHO/PD-L1 cells, then fluorescently conjugated PD-1-Fc (FIG. 9D).

Assay [10] addresses T10, human CD28, full length, expressed on transfected HEK293 cells (human, UniProt P10747 19-220).
T10 construct: Full-length surface expression construct from Genscript
The experiment in a line: flow cytometry, HEK293 cells transfected with human CD28.

T1 sequence (Q9NZQ7 19-290): as the sequence (Q9NZQ7 19-290) above
T9 sequence (Q9NZQ7 19-290): as above
T3 sequence (P16410 36-223): as the sequence (P16410 36-223) above

B1: wild-type CD80 IgV-Fc (inert), Example 15 (Fc fusion, not shown: a dimerising Fc or GST)
chain: VIHVTKEVKEVATLSCGHNVSVEELAQTRIYWQKEKKMVLTMMSGDMNIWPEYKNRTIFDITNNLSIVILALRPSDEGTYECVVLKYEKDAFKREHLAEVTLSVKAD
notes: Inert Fc fusion; also called CD80 WT IgV-Fc
In the case of B1, the “Fold Increase over WT CD80-IgV-Fc, Jurkat/IL2 + CHO/OKT3/PD-L1 Reporter Assay” value in the assay with human PD-L1 [1] stood at 1 fold. The “Fold change to WT CD80” value with human CD28, with human PD-L1 [2] and with human CTLA-4 was 1 fold throughout. In the assay with human PD-L1 [3], the “Ratio of PDL1:CD28” value turned out to be 1.6 ratio.

B2: CD80 WT IgV-Fc (Fc fusion, not shown: small tags and cut ends; a dimerising Fc or GST)
chain: VIHVTKEVKEVATLSCGHNVSVEELAQTRIYWQKEKKMVLTMMSGDMNIWPEYKNRTIFDITNNLSIVILALRPSDEGTYECVVLKYEKDAFKREHLAEVTLSVKAD
notes: also called wild-type CD80 IgV-Fc
As for B2, the “Ratio of PDL1:CD28” value in [4] was found to be 1 ratio. Besides, the “Fold change to WT CD80” value in [5], in assay [6] and in assay [7] was 1 fold each time.

B3: variant CD80 IgV-Fc E35G/K54E/A71D/L72P (Fc fusion)
chain: VIHVTKEVKEVATLSCGHNVSVEELAQTRIYWQKGKKMVLTMMSGDMNIWPEYENRTIFDITNNLSIVILDPRPSDEGTYECVVLKYEKDAFKREHLAEVTLSVKAD
notes: not shown: which one is
Turning to B3, in [8], the “MFI at 22.2 nM” value amounted to 1580 MFI.

B4: PD-L2 V89D IgV-Fc (Fc fusion, not shown: a dimerising Fc or GST)
chain: LFTVTVPKELYIIEHGSNVTLECNFDTGSHVNLGAITASLQKVENDTSPHRERATLLEEQLPLGKASFHIPQVQVRDEGQYQCIIIYGDAWDYKYLTLKVKA
For B4, in the assay with PD-1-Fc, the “Response Units” value is 0.005 Response Units.

B5: CD80 variant H18Y/V22A/E35D/M47V/T62S/A71G IgV (SEQ ID NO: 2275)-Fc (inert) (Fc fusion, not shown: small tags and cut ends)
chain: VIHVTKEVKEVATLSCGYNVSAEELAQTRIYWQKDKKMVLTMMSGDVNIWPEYKNRTIFDISNNLSIVILGLRPSDEGTYECVVLKYEKDAFKREHLAEVTLSVKADEPKSSDKTHTCPPCPAPEAEGAPSVFLFPPKPKDTLMISRTPEVTCVVVDVSHEDPEVKFNWYVDGVEVHNAKTKPREEQYNSTYRVVSVLTVLHQDWLNGKEYKCKVSNKALPAPIEKTISKAKGQPREPQVYTLPPSREEMTKNQVSLTCLVKGFYPSDIAVEWESNGQPENNYKTTPPVLDSDGSFFLYSKLTVDKSRWQQGNVFSCSVMHEALHNHYTQKSLSLSPG
notes: also called H18Y/V22A/E35D/M47V/T62S/A71G CD80 IgV-Fc; CD80 vIgD-Fc
In the case of B5, the binding result in assay [9] was “binds”.

B6: WT CD80 ECD-Fc (inert) (Fc fusion, not shown: a dimerising Fc or GST)
chain: VIHVTKEVKEVATLSCGHNVSVEELAQTRIYWQKEKKMVLTMMSGDMNIWPEYKNRTIFDITNNLSIVILALRPSDEGTYECVVLKYEKDAFKREHLAEVTLSVKADFPTPSISDFEIPTSNIRRIICSTSGGFPEPHLSWLENGEELNAINTTVSQDPETELYAVSSKLDFNMTTNHSFMCLIKYGHLRVNQTFNWNTTKQEHFPDN
notes: also called wild-type CD80-ECD-Fc (inert)
As to B6, the “MFI at 66.6 nM” value in assay [10] came out at 3070 MFI.
